Measured values published in article PMC5966876.

target: cyclin T1 (UniProt O60563); test: co-immunoprecipitation (anti-Flag IP, western blot quantification); conditions: 293T cells, lysed at 48 h posttransfection; 12% SDS-PAGE; parent: est. 100; read off a plot
UniProt O60563, sequence (O60563 whole entry): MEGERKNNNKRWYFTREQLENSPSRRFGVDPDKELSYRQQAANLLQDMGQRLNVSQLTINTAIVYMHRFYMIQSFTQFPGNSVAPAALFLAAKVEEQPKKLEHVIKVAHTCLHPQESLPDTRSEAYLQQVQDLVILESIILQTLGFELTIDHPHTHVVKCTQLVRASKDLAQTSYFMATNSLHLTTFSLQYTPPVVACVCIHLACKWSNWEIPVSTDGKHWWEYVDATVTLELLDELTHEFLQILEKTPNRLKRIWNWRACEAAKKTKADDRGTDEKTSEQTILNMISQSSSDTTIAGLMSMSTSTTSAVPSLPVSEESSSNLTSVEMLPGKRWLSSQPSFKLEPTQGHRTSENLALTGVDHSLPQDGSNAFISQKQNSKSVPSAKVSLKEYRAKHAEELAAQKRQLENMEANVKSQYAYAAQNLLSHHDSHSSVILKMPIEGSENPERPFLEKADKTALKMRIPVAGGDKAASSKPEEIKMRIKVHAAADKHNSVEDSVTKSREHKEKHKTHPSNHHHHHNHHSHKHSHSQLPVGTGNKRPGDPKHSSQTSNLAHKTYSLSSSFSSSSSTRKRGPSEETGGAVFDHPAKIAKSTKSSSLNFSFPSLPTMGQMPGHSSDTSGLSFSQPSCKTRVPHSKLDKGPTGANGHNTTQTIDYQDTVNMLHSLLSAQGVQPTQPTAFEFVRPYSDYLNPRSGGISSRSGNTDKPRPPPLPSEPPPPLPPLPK

Substance | percent of parent
Flag-tagged HIV-1 Tat (WT) S16A | 48 % of WT Tat
Flag-tagged HIV-1 Tat (WT) S16D | 20 % of WT Tat
Flag-tagged HIV-1 Tat (WT) S46A | 45 % of WT Tat
Flag-tagged HIV-1 Tat (WT) S46D | 22 % of WT Tat
